Measurements reported in US20140298544A1, “Engineered PEP carboxylase variants for improved plant productivity” (PIONEER HI BRED INTERNATIONAL INC, priority 2011, published 2014).
Where two headings read alike, the source gives them in different places.

B1: 3D37-F3: maize C4 PEPC variant, 10 amino acid substitutions, SEQ ID NO: 10 (protein)
chain: MASTKAPGPGEKHHSIDAQLRQLVPGKVSEDDKLIEYDALLVDRFLNILQDLHGPSLREFVQECYEVSADYEGKGDTTKLGELGAKLTGLAPADAILVASSILHMLNLANLAEEVQIARRRRNSKLKKGGFADEGSATTESDIEETLKRLVSEVGKSPEEVFEALKNQTVDLVFTAHPTQSARRSLLQKNAGIRNCLTQLNAKDITDDDKQELDEALQREIQAAFRTDEIRRAQPTPQDEMRYGMSYIHETVWKGVPKFLRRVDTALKNIGINERLPYNVSLIRFSSWMGGDRDGNPRVTPEVTRDVCLLARMMAANLYIDQIEELMFELSMWRCNDELRVRAEELQSSAGSKVTKYYIEFWKQIPPNEPYRVILGHVRDKLYNTRERARHLLASGVSEISAESSFTSIEEFLEPLELCYKSLCDCGDKAIADGSLLDLLRQVFTFGLSLVKLDIRQESERHTDVIDAITTHLGIGSYREWSEDKRQEWLLSELKGKRPLLPPDLPQTDEIADVIGAFHVLAELPPDSFGPYIISMATAPSDVLAVELLQRECGIKQPLPVVPLFERLADLQSAPASVERLFSVDWYMDRIKGKQQVMVGYSDSGKDAGRLSAAWQLYRAQEEMAQVAKRYGVKLTLFHGRGGTVGRGGGPTHLAILSQPPDTINGSIRVTVQGEVIEFCFGEEHLCFQTLQRFTAATLEHGMHPPVSPKPEWRKLMDEMAVVATEEYRSVVVKEPRFVEYFRSATPETEYGRMNIGSRPAKRRPGGGITTLRAIPWIFSWTQTRFHLPVWLGVGAAFKWAIDKDVKNFQVLKEMYNEWPFFRVTLDLLEMVFAKGDPGIAGLYDELLVAEELKPFGKQLRDKYVETQQLLLQIAGHKDILEGDPYLKQGLVLRNPYITTLNVFQAYTLKRIRDPNFKVTPQPPLSKEFADENKPAGLVKLNPASEYPPGLEDTLILTMKGIAAGMQNTG
modifications: shuffled variant
B2: 3D10-G8: maize C4 PEPC variant, 14 amino acid substitutions, SEQ ID NO: 20 (protein)
chain: MASTKAPGPGEKHHSIDAQLCQLVPGKVSEDDKLIEYDALLVDRFLNILQDLHGPSLREFVQECYEVSADYEGKGDTTKLGELGAKLTGLAPADAILVASSILHMLNLANLAEEAQIALRRRNSKLKKGGFADEGSATTESDIEETLKRLVSEVGKSPEEVFEALKDQTVDLVFTAHPTQSARRSLLQKNARIRNCLTQLNAKDITDDDKQELDEALQREIQAAFRTDEIRRAQPTPQDEMRYGMSYIHETVWKGVPKFLRRVDTALKNIGINERLPYNVSLIRFSSWMGGDRDGNPRVTPEVTRDVCLLARMMAANLYIDQIEELMFELSMWRCNDELRVRAEELHASAGSKVTKYYIEFWKQIPPNEPYRVILGHVRDKLYNTRERARHLLASGVSEISAESSFTSIEEFLEPLELCYKSLCDCGDKAIADGSLLDLLRQVFTFGLSLVKLDIRQESERHTDVIDAITTYLGIGSYREWSEDKRQEWLLSELKGKRPLLPPDLPQTDEIADVIGAFHVLAELPPDSFGPYIISMATAPSDVLAVELLQRECGIKQPLPVVPLFERLADLQSAPASVERLFSVDWYMDRIKGKQQVMVGYSDSGKDAGRLSAAWQLYKAQEEMAQVAKRYGVKLTLFHGRGGTVGRGGGPTHLAILSQPPDTINGSIRVTVQGEVIEFCFGEEHLCFQTLQRFTAATLEHGMHPPVSPKPEWRKLMDEMAVVATEEYRSVVVKEPRFVEYFRSATPETEYGRMNIGSRPAKRRPGGGITTLRAIPWIFSWTQTRFHLPVWLGVGAAFKWAIDKDVKNFQVLKEMYNEWPFFRVTLDLLEMVFAKGDPGIAGLYDELLVAEELKPFGKQLRDKYVETQQLLLQIAGHKDILEGDPFLKRGLVLRNPYITTLNVFQAYTLKRIRDPNFKVTPQPPLSKEFADENKPAGLVKLNPASEYPPGLEDTLILTMKGIAAGMQNTG
modifications: shuffled variant

Key:
maize C4 PEPC [1] = assay: Kinetic and regulatory properties of PEPC variants (expressed in E. coli); format: biochemical; conditions: for HCO3 S0.5 / HCO3 kcat/S0.5 / HCO3 kcat/S0.5 % wt: bicarbonate substrate; for Ki / Malate Ki % wt: inhibitor malate
Text: (§1) Libraries of modified PEPC polynucleotides were generated using recursive sequence recombination methods (Stemmer, Proc. Natl. Acad. Sci USA 91:10747-10751; Ness, et. al., Nature Biotechnology 20:1251-1255), also known as gene shuffling methods. These libraries incorporated diversity from related PEPC enzymes and also incorporated other designed and random changes. The starting polynucleotide sequence in which the diversity was incorporated was the maize C4 PEPC as shown in SEQ ID NO: 25. Each PEPC variant was expressed in E. coli as a thioredoxin fusion using the pET 32 expression vector (Novagen) with the E. coli expression strain Rosetta gami 2 BL21 DE3 pLYS S. Cultures expressing the variants were grown in 96-well culture blocks, lysed, and then PEPC activity and PEPC protein abundance were determined. The variants with high specific activity were subjected to further rounds of shuffling, for a total of 3 rounds. Examples of nucleotide and amino acid sequences of PEPC variants obtained with this method are SEQ ID NO: 4 to 24.
(§2) Detailed kinetic studies of PEPC variants were done in accordance with methods known in the art. See, for example, Tovar-Mendez et al. (2000) Plant Physiol. 123: 149-160; Tover-Mendez et al. (1998) Biochem. J. 332: 633-642.
(§3) PEPC variants had several improved properties in comparison with wild type PEPC, including greater affinity (lower S0.5 values) with respect to the bicarbonate substrate, greater Kcat/S0.5 values with the bicarbonate or PEP substrates, greater activation (lower A0.5 values) with […] or glycine as activators and greater Ki values with malate as inhibitor.

maize C4 PEPC [2] = target: T1, maize C4 PEPC (Zea mays, UniProt P04711, A239D/A736P/F800W/F886Y/H119R/H347Q/P482S/R192G/R495K/R556K/R807K/S350A/V555I); assay: as above; format: biochemical; conditions: relative to wild type
T1 construct: thioredoxin; made in house; host or cells: E. coli Rosetta gami 2 BL21 DE3 pLYS S
Text: as §1, §2, §3

[3] = PEP substrate, relative to wild type
[4] = activator Glc-6-P, read-out: Glc-6-P A0.5
[5] = activator Glc-6-P, relative to wild type
[6] = activator glycine, read-out: Glycine A0.5
[7] = activator glycine, relative to wild type

| Molecule | PEP, no activators kcat/S0.5 (maize C4 PEPC [1]; PEP substrate) [M⁻¹ s⁻¹] | PEP, no activators kcat/S0.5 % wt (maize C4 PEPC [1]; [3]) [% wt] | PEP, with activators kcat/S0.5 (maize C4 PEPC [1]; PEP substrate) [M⁻¹ s⁻¹] | PEP, with activators kcat/S0.5 % wt (maize C4 PEPC [1]; [3]) [% wt] | Glc-6-P Vmax Fold incr (maize C4 PEPC [1]; activator Glc-6-P) [Fold incr] | EC50 (maize C4 PEPC [1]; [4]) [mM] | Glc-6-P A0.5 % wt (maize C4 PEPC [1]; [5]) [% wt] | Glycine Vmax Fold incr (maize C4 PEPC [1]; activator glycine) [Fold incr] | EC50 (maize C4 PEPC [1]; [6]) [mM] | Glycine A0.5 % wt (maize C4 PEPC [1]; [7]) [% wt] | HCO3 S0.5 (maize C4 PEPC [1]) [mM] | HCO3 kcat/S0.5 (maize C4 PEPC [1]) [M⁻¹ s⁻¹] | HCO3 kcat/S0.5 % wt (maize C4 PEPC [1]; relative to wild type) [% wt] | Ki (maize C4 PEPC [1]) [mM] | Malate Ki % wt (maize C4 PEPC [1]; relative to wild type) [% wt] | further results |
| --- | --- | --- | --- | --- | --- | --- | --- | --- | --- | --- | --- | --- | --- | --- | --- | --- |
| B1 | 71500 | 210 | 5.01e+06 | 205 | 7.2 | 4.46 | 66 | 5.8 | 0.93 | 26 | 0.0167 | 3.512e+06 | 166 | 2.4 | 600 | kcat/S0.5 Fold incr. (maize C4 PEPC [1]): 70.1 Fold incr.; Ki for malate, in words (maize C4 PEPC [1]; relative to wild type): increased Ki; activation by glucose-6-phosphate, in words (maize C4 PEPC [1]; relative to wild type): increased activation; activation by glycine, in words (maize C4 PEPC [1]; relative to wild type): increased activation; affinity (S0.5 value) for bicarbonate, in words (maize C4 PEPC [2]): higher affinity |
| B2 | 86200 | 253 | 4.613e+06 | 189 | 2.5 | 0.92 | 14 | 3.6 | 0.23 | 6 | 0.0255 | 3.2e+06 | 151 | 5 | 1250 | kcat/S0.5 Fold incr. (maize C4 PEPC [1]; PEP substrate, with activators vs no activators): 53.5 Fold incr. |
